Article doi:10.1101/2021.09.12.459968 (bioRxiv, 2021)

B1: recombinant full-length mouse NEK7 (enzyme)
chain: not shown
B2: mouse NLRP3 LRRm6 (K970E_Q1001R_F1029A) (natural protein)
chain: MTSVRCKLAQYLEDLEDVDLKKFKMHLEDYPPEKGCIPVPRGQMEKADHLDLATLMIDFNGEEKAWAMAVWIFAAINRRDLWEKAKKDQPEWNDTCTSHSSMVCQEDSLEEEWMGLLGYLSRISICKKKKDYCKMYRRHVRSRFYSIKDRNARLGESVDLNSRYTQLQLVKEHPSKQEREHELLTIGRTKMRDSPMSSLKLELLFEPEDGHSEPVHTVVFQGAAGIGKTILARKIMLDWALGKLFKDKFDYLFFIHCREVSLRTPRSLADLIVSCWPDPNPPVCKILRKPSRILFLMDGFDELQGAFDEHIGEVCTDWQKAVRGDILLSSLIRKKLLPKASLLITTRPVALEKLQHLLDHPRHVEILGFSEAKRKEYFFKYFSNELQAREAFRLIQENEVLFTMCFIPLVCWIVCTGLKQQMETGKSLAQTSKTTTAVYVFFLSSLLQSRGGIEEHLFSDYLQGLCSLAADGIWNQKILFEECDLRKHGLQKTDVSAFLRMNVFQKEVDCERFYSFSHMTFQEFFAAMYYLLEEEAEGETVRKGPGGCSDLLNRDVKVLLENYGKFEKGYLIFVVRFLFGLVNQERTSYLEKKLSCKISQQVRLELLKWIEVKAKAKKLQWQPSQLELFYCLYEMQEEDFVQSAMDHFPKIEINLSTRMDHVVSSFCIKNCHRVKTLSLGFFHNSPKEEEEERRGGRPLDQVQCVFPDTHVACSSRLVNCCLTSSFCRGLFSSLSTNRSLTELDLSDNTLGDPGMRVLCEALQHPGCNIQRLWLGRCGLSHQCCFDISSVLSSSQKLVELDLSDNALGDFGIRLLCVGLKHLLCNLQKLWLVSCCLTSACCQDLALVLSSNHSLTRLYIGENALGDSGVQVLCEKMKDPQCNLQKLGLVNSGLTSICCSALTSVLKTNQNFTHLYLRSNALGDTGLRLLCEGLLHPDCKLQMLELDNCSLTSHSCWNLSTILTHNHSLRELNLGNNDLGDLCVVTLCEVLKQQGCLLQSLRLGEMYLNRETKRALEALQEEKPELTIVAEISW

Assays:
[1] = target: full-length mouse NLRP3 (FLAG-mScarlet tag removed), double ring cage (mouse, UniProt Q8R4B8 1-1033); test: co-sedimentation
[2] = target: the molecule itself; test: negative-staining electron microscopy

Binder	binding result [1]	binding result [2]
B1	binds	–
B2	–	binds
